Data: patent publication US20240124586A1 (WUXI BIOLOGICS IRELAND, published 2024)

B1: W3248-U6T1.G25R-1.uIgG4.SP, bispecific anti-PD-1 x CTLA-4 (bispecific antibody)
heavy: EVQLLESGGGLVQPGGSLRLSCAASGFTFSSHAMSWVRQAPGKGLEWVSTITGGGGSIYYADSVKGRFTISRDNSKNTLYLQMNSLRAEDTAVYYCAKNRAGEGYFDYWGQGTLVTVSSASTKGPSVFPLAPCSRSTSESTAALGCLVKDYFPEPVTVSWNSGALTSGVHTFPAVLQSSGLYSLSSVVTVPSSSLGTKTYTCNVDHKPSNTKVDKRVGGGGSGGGGSQVQLVESGGGVVQPGRSLRLSCAASGFTFSSYTMHWVRQAPGKGLEWVTFISYDGNNKYYADSVKGRFTISRDNSKNTLYLQMNSLRAEDTAIYYCARTGWLGPFDYWGQGTLVTVLEDLKNVFPPEVAVFEPSEAEISHTQKATLVCLATGFYPDHVELSWWVNGKEVHSGVCTDPQPLKEQPALQDSRYALSSRLRVSATFWQNPRNHFRCQVQFYGLSENDEWTQDRAKPVTQIVSAEAWGRYGPPCPPCPAPEFLGGPSVFLFPPKPKDTLMISRTPEVTCVVVDVSQEDPEVQFNWYVDGVEVHNAKTKPREEQFNSTYRVVSVLTVLHQDWLNGKEYKCKVSNKGLPSSIEKTISKAKGQPREPQVYTLPPSQEEMTKNQVSLTCLVKGFYPSDIAVEWESNGQPENNYKTTPPVLDSDGSFFLYSRLTVDKSRWQEGNVFSCSVMHEALHNHYTQKSLSLSLG
light 1: SYELTQPLSVSVALGQTARITCGGDNIGNKDVHWYQQKPGQAPVLVIYRDSNRPSGIPEGFSGSNSGNTATLTISRAQAGDEADYYCQVWDSIWVFGGGTKLTVLGQPKAAPSVTLFPPSSEELQANKATLVCLISDFYPGAVTVAWKADSSPVKAGVETTTPSKQSNNKYAASSYLSLTPEQWKSHKSYSCQVTHEGSTVEKTVAPTECS
light 2: not shown
notes: IgG4 (S228P); also called U6T1.G25R.IgG4
B2: W3248-U6T5.G25-1.uIgG4.SP, bispecific anti-PD-1 x CTLA-4 (bispecific antibody)
heavy: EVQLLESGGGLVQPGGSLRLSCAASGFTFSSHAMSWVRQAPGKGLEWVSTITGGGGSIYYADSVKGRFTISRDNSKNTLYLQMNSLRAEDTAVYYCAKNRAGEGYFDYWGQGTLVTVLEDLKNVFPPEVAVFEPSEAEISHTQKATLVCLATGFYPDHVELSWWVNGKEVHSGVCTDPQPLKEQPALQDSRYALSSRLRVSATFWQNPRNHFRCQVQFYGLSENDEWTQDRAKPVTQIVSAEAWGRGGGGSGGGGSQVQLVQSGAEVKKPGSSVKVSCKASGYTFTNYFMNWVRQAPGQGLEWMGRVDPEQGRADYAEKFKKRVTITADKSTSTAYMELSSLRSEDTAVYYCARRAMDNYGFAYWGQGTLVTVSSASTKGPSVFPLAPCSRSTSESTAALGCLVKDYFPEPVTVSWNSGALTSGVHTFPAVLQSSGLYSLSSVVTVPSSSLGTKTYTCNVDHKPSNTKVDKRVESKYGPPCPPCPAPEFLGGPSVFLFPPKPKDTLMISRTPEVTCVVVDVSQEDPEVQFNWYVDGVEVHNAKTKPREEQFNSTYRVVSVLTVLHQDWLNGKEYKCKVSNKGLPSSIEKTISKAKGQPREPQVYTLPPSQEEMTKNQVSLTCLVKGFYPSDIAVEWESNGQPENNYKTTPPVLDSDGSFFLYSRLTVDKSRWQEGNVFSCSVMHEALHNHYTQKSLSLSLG
light 1: SYELTQPLSVSVALGQTARITCGGDNIGNKDVHWYQQKPGQAPVLVIYRDSNRPSGIPEGFSGSNSGNTATLTISRAQAGDEADYYCQVWDSIWVFGGGTKLTVLPDIQNPDPAVYQLRDSKSSDKSVCLFTDFDSQTQVSQSKDSDVYITDKCVLDMRSMDFKSNSAVAWSQKSDFACANAFQNSIIPEDTFFPSPESS
light 2: EIVLTQSPDFQSVTPKEKVTITCSANSALSYMYWYQQKPDQSPKLWVHGTSNLASGVPSRFSGSGSGTDFTLTINSLEAEDAATYYCHHWSNTQWTFGGGTKVEIKRTVAAPSVFIFPPSDEQLKSGTASVVCLLNNFYPREAKVQWKVDNALQSGNSQESVTEQDSKDSTYSLSSTLTLSKADYEKHKVYACEVTHQGLSSPVTKSFNRGEC
notes: IgG4 (S228P); also called WBP3248-U6T5.G25-1-uIgG4.SP; U6T5.G25.IgG4

How the values were obtained:
[1] = biological target: T1, cynomolgus PD-1 on engineered 293F cells (W305-293F.cynoPro1.FL.pool) (cynomolgus); test: FACS binding to cynomolgus PD-1 engineered cells
T1 construct: whole, on cells; also called cynomolgus PD-1 engineered cells
Method: (§1) 4.0-fold titrated Abs with 1% BSA DPBS from 40 μg/ml to 0.0001526 μg/ml were added to the cells. Plates were incubated at 4° C. for 1 hour. After wash, […] 1:150 diluted PE-labeled goat anti-human antibody (Jackson 109-115-098) was added to each well and the plates were incubated at 4° C. for 1 hour. The binding of the antibodies onto the cells was tested by flow cytometry and the mean fluorescence intensity (MFI) was analyzed by FlowJo.

[2] = biological target: T2, cynomolgus CTLA-4 on engineered 293F cells (W316-293F.cynoPro1.F1.Pool) (cynomolgus); test: FACS binding to cynomolgus CTLA-4 engineered cells
T2 construct: whole, on cells; also called cynomolgus CTLA-4 engineered cells
Method: as §1, with “4-fold” for “4.0-fold”, “0.00004” for “0.0001526”

[3] = biological target: T3, ECD of human PD-1 (SPR analyte) (human, UniProt Q15116 25-170); test: SPR (Biacore T200), antibody captured by anti-human Fc, PD-1 ECD as analyte
T3 construct: extracellular domain; the SPR method only says ECD of PD-1; also called W305-hPro1.ECD.His
Method: SPR technology was used to measure the on-rate constant (ka) and off-rate constant (kd) of the antibodies to ECD of CTLA-4 or PD-1. The affinity constant (KD) was consequently determined.
Biacore T200, Series S Sensor Chip CM5, Amine Coupling Kit, and 10×HBS-EP were purchased from GE Healthcare. Goat anti-human IgG Fc antibody was purchased from Jackson ImmunoResearch Lab (catalog number 109-005-098). In immobilization step, the activation buffer was prepared by mixing 400 mM EDC and 100 mM NHS immediately prior to injection. The CM5 sensor chip was activated for 420 s with the activation buffer. 30 μg/mL of goat anti-human IgG Fcγ antibody in 10 mM NaAc (pH 4.5) was then injected to Fc1-Fc4 channels for 200 s at a flow rate of 5 μL/min. The chip was deactivated by 1 M ethanolamine-HCl (GE). Then the antibodies were captured on the chip. Briefly, 4 μg/mL antibodies in running buffer (HBS-EP+) was injected individually to Fc3 channel for 30 s at a flow rate of […]. […] Regeneration buffer (10 mM Glycine pH 1.5) was injected at 10 μL min for 30 s following every dissociation phase.

[4] = biological target: T4, human PD-1 on engineered CHO-S cells (W305-CHO-S.hPro1.C6) (human, UniProt Q15116 25-288); test: competitive FACS on human PD-1 CHO-S cells with 5 ug/ml PD-L1 ECD.mFc (competitor: PD-L1)
T4 construct: whole, on cells; also called human PD-1 engineered cells; PD-1+ cells
Method: In order to test whether the bispecific antibodies could block hPD-L1 binding to hPD-1 protein, a competitive FACS was conducted. […] Plates were incubated at 4° C. for 1 hour. After wash, the binding of W315-hPro1.ECD.mFc to cell expressive human PD-1 was detected by FITC-labeled goat anti-mouse antibody (abcam 98716 1:125). The competition binding of antibodies to the cells was tested by flow cytometry and the mean fluorescence intensity (MFI) was analyzed by FlowJo.

[5] = biological target: T5, hCTLA4.ECD.hFc (human); test: dual-binding ELISA (hCTLA4.ECD.hFc coated, detected with hPD-1-ECD.Biotin), sample kept 0 d in human serum at 37 C
T5 construct: ECD fused to a human Fc; not biotinylated; also called Human CTLA-4: W316-hPro1.ECD.hFc (in house)
Method: (§2) The antibodies were incubated in freshly isolated human serum at 37° C. On indicated time points, an aliquot of serum treated sample was removed from the incubator and snap frozen in liquid nitrogen, and then stored at −80° C. until ready for a dual-binding ELISA test. The frozen samples were quickly thawed immediately prior to the stability test. Briefly, plates were pre-coated with 0.5 μg/mL of hCTLA4.ECD.hFc (in house) at 4° C. overnight. After 1-hour blocking, the testing antibodies were added to the plates at various concentrations. The plates were incubated at ambient temperature for 1 hour. Following the incubation, the plates were washed three times with 300 μL per well of PBS containing 0.5% (v/v) Tween 20. Then 0.1 μg/ml hPD-1-ECD.Biotin was added to plates and the mixture was incubated for 1 hour. After washing the plates three times, Streptavidin-HRP (Lifetechnologies, #SNN1004) (1:20000 diluted) was added and incubated on the plates for 1 hour at room temperature. After washing six times with 300 μL per well of PBS containing 0.5% (v/v) Tween 20, 100 μL tetramethylbenzidine (TMB) substrate is added for the detection per well. The reaction was stopped after approximately 5 minutes by addition of 100 μL per well of 2 M HCl. The absorbance of the wells was measured at 450 nm with a multiwall plate reader (SpectraMax® M5e). […]

[6] = biological target: T5, hCTLA4.ECD.hFc; test: dual-binding ELISA (hCTLA4.ECD.hFc coated, detected with hPD-1-ECD.Biotin), sample kept 1 d in human serum at 37 C
Method: as §2

[7] = biological target: T5, hCTLA4.ECD.hFc; test: dual-binding ELISA (hCTLA4.ECD.hFc coated, detected with hPD-1-ECD.Biotin), sample kept 7 d in human serum at 37 C
Method: as §2

[8] = biological target: T5, hCTLA4.ECD.hFc; test: dual-binding ELISA (hCTLA4.ECD.hFc coated, detected with hPD-1-ECD.Biotin), sample kept 14 d in human serum at 37 C
Method: as §2

T5 sequence (P16410 36-161): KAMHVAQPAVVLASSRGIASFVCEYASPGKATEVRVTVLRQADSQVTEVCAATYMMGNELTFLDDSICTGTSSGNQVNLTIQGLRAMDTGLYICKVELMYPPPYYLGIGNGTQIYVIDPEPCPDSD
T3 sequence (Q15116 25-170): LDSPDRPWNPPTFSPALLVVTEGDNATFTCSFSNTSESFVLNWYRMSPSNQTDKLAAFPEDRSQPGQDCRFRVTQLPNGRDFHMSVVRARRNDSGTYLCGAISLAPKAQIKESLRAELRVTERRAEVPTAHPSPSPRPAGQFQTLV
T4 sequence (Q15116 25-288, change not shown): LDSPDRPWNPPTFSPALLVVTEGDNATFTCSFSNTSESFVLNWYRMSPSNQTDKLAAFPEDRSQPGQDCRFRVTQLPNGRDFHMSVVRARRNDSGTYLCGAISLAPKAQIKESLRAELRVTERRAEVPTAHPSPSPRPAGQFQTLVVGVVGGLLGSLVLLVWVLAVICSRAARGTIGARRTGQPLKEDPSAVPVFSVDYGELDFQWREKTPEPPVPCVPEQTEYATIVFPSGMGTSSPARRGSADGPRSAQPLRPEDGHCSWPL

Binder	EC50 [1] [pM]	Top(MFI) [1] [MFI]	EC50 [2] [pM]	Top(MFI) [2] [MFI]	Kd [3] [pM]	IC50 [4] [pM]	EC50 [5] [pM]	EC50 [6] [pM]	EC50 [7] [pM]	EC50 [8] [pM]
B1	4710	66800	5870	6650	1240	1670	140	148	145	156
B2	5130	68100	1450	11200	1320	1920	92	97.8	101	98.9
